From patent publication KR20220059888A (dated 2022)

Tests used:
[1] = target: T1, 개 Tie2 단백질 (개 (dog), UniProt A0A8I3S0B4 27-1128); assay: flow cytometry; HEK293T cells transfected with dog Tie2
T1 construct: whole, on cells; also called 다른 종 유래의 Tie2 단백질

[2] = target: T2, 마우스 Tie2 단백질 (마우스 (mouse), UniProt Q02858 23-1122); assay: flow cytometry; HEK293T cells transfected with mouse Tie2
T2 construct: whole, on cells; also called 다른 종 유래의 Tie2 단백질

[3] = target: T3, 랫 Tie2 단백질 (랫 (rat), UniProt A0ABK0L6J5 19-1116); assay: flow cytometry; HEK293T cells transfected with rat Tie2
T3 construct: whole, on cells; also called 다른 종 유래의 Tie2 단백질

T2 sequence (Q02858 23-1122): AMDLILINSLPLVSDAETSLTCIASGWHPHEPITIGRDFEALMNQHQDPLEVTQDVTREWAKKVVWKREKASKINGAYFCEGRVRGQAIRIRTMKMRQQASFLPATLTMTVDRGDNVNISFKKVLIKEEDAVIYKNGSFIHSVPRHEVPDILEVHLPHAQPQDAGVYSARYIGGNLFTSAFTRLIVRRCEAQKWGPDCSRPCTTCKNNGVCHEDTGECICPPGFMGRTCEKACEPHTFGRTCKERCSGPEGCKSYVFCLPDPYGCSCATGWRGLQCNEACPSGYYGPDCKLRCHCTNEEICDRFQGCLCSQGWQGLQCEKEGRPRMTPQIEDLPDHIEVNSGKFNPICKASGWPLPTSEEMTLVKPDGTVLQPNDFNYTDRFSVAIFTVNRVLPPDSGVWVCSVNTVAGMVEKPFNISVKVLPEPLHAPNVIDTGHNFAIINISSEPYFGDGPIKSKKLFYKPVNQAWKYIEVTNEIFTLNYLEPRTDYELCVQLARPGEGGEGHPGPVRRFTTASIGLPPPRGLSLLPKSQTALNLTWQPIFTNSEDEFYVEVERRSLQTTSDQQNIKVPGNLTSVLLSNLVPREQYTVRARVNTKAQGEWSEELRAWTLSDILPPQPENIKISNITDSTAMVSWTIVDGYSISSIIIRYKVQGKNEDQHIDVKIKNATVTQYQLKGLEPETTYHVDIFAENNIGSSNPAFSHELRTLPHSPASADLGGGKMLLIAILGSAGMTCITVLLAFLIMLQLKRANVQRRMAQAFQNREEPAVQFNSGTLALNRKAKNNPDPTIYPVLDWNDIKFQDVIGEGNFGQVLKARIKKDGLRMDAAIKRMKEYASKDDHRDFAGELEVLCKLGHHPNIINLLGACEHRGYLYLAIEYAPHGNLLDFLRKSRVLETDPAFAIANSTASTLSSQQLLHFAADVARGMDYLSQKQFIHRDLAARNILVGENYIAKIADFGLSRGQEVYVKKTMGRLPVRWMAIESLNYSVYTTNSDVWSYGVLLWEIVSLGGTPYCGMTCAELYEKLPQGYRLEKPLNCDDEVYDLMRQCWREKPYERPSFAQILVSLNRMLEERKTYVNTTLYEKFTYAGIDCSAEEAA

B1: Ang1mab2-1 (antibody, human IgG1, kappa, V domains shown)
VH: QVQLVESGGGVVQPGRSLRLSCAASGFTFSSYAMHWVRQAPGKGLEWVAVISYDGSNKYYADSVKGRFTISRDNSKNTLYLQMNSLRAEDTAVYYCARQYSGVFEYWGQGTLITVSS
VL: DIQMTQSPDSLAVSLGERATINCKSSQSVLYRSNNRNYLAWYQQKLGQPPQLLIYWASTRESGVPDRFSGSGSGADFTLTISSLQAEDVAVYYCQQYFSIPYTFGQGTKLEIKR
notes: also called 제2 기본 항체
binding result [1]: no binding (tested: 5-g/ml (so in the source)) | binding result [2]: no binding (tested: 5-g/ml (so in the source)) | binding result [3]: no binding (tested: 5-g/ml (so in the source))
